The values that follow come from PMC7614608.

In one series the test system is UAP56 (human). The experiment in a line: filter binding. The note with it: Filter binding: 150 mM KCl, 20 mM HEPES pH 7.9, 2 mM MgCl2, 5% glycerol, 0.5 mM TCEP, +/-1 mM ATPgS, 50 nM RNA, 20 C, 45 min; EJC assembly for TREX-EJC-RNA: ….
In another series the test system is ALYREFN (human). The series is described as follows: filter binding. The note with it: Filter binding: 150 mM KCl, 20 mM HEPES pH 7.9, 2 mM MgCl2, 5% glycerol, 0.5 mM TCEP, +/-1 mM ATPgS, 50 nM RNA, 20 C, 45 min; EJC assembly for TREX-EJC-RNA: ….
The target in series [1] is ALYREF UBM (Homo sapiens) (UniProt Q86V81). The following applies: cited from earlier work.

Sequence of UAP56 (Q13838 2-428): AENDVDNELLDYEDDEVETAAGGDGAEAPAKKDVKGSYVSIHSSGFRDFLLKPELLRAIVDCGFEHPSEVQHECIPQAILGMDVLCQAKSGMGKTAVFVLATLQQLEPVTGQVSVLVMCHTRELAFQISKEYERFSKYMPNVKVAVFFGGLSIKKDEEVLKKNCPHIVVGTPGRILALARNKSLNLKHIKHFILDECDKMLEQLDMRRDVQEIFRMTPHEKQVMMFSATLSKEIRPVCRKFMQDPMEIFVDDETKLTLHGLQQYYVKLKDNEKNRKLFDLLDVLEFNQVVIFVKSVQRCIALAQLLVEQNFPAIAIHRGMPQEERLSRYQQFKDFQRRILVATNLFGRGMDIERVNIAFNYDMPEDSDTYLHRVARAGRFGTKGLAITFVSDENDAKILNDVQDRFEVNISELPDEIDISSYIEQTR

One may read the Kd as the free concentration of one partner at which half of the binding sites on the other are occupied at equilibrium, for simple one-to-one binding. As to 400-nt AdML RNA, the Kd with UAP56 (human) is 900 nM; with ALYREFN (human) it was 600 nM. Turning to UAP56 (from UniProt Q13838), the Kd in series [1] was 2900 nM.
